From the DeepSol protein solubility set

Assay: soluble on expression in E. coli; label from the status in PepcDB or PDB records

Sequence	soluble on expression in E. coli
MHWQTHTVFNQPIPLNNSNLYLSDGALCEAVTREGAGWDSDFLASIGQQLGTAESLELGRLANVNPPELLRYDAQGRRLDDVRFHPAWHLLMQALCTNRVHNLAWEEDARSGAFVARAARFMLHAQVEAGSLCPITMTFAATPLLLQMLPAPFQDWTTPLLSDRYDSHLLPGGQKRGLLIGMGMTEKQGGSDVMSNTTRAERLEDGSYRLVGHKWFFSVPQSDAHLVLAQTAGGLSCFFVPRFLPDGQRNAIRLERLKDKLGNRSNASCEVEFQDAIGWLLGLEGEGIRLILKMGGMTRFDCALGSHAMMRRAFSLAIYHAHQRHVFGNPLIQQPLMRHVLSRMALQLEGQTALLFRLARAWDRRADAKEALWARLFTPAAKFVICKRGMPFVAEAMEVLGGIGYCEESELPRLYREMPVNSIWEGSGNIMCLDVLRVLNKQAGVYDLLSEAFVEVKGQDRYFDRAVRRLQQQLRKPAEELGREITHQLFLLGCGAQMLKYASPPMAQAWCQVMLDTRGGVRLSEQIQNDLLLRATGGVCV	soluble
MSLSNGELAILVFGYPETMANQVIAYFQEFGTILEDFEVLRKPQAMTVGLQDKQFVPIFSGNSWTKITYDNPASAVDALLENGAVFNGVLLGVIPYTKDAVERLQKRKLTSSEDIGSGITTAAAETKHKDQGTIENDIPSQYMAKLDIKDGSNLFISTNTTSGTKVDPKKEQKKGVVGTVLRYFFGFNEGHHHHHH	soluble
MGHHHHHHHHHHSSGHIEGRHMIRLGYPCENLTLGATTNRTLRLAHLTEERVREKAAENLRDLERILRFNADHGFALFRIGQHLIPFASHPLFPYDWEGAYEEELARLGALARAFGQRLSMHPGQYVNPGSPDPEVVERSLAELRYSARLLSLIGAEDGVLVLHLGGAYGEKGKALRRFVENLRGEEEVLRYLALENDERLWNVEEVLKAAEALGVPVVVDTLHHALNPGRLPLEEALRLAFPTWRGRPRVHLASQDPKKRPGAHAFRVTREDWERLLSALPGPADVMVEAKGKEQGLATP	soluble
VSQVHRILNCRGTRIHAVADSPPDQQGPLVVLLHGFPESWYSWRHQIPALAGAGYRVVAIDQRGYGRSSKYRVQKAYRIKELVGDVVGVLDSYGAEQAFVVGHDWGAPVAWTFAWLHPDRCAGVVGISVPFAGRGVIGLPGSPFGERRPSDYHLELAGPGRVWYQDYFAVQDGIITEIEEDLRGWLLGLTYTVSGEGMMAATKAAVDAGVDLESMDPIDVIRAGPLCMAEGARLKDAFVYPETMPAWFTEADLDFYTGEFERSGFGGPLSFYHNIDNDWHDLADQQGKPLTPPALFIGGQYDVGTIWGAQAIERAHEVMPNYRGTHMIADVGHWIQQEAPEETNRLLLDFLGGLRP	soluble
MSAEMTVEGMISVFMKIRKVYADEFGRMLGNETYSPNEISILLFLANNPSIDTNSQLCTCLGVSKALVCRSVDALLGKEMIISVADDHDKRVQHLKLTEHALPVIEQLGGIKRKIDQEILEGIPEEDIANMANTMEKIFARFEERAKGKESSL	not soluble
MAHHHHHHMFHLWPLRPQPNRKPLGSKVVCWPQRRQIPPAPRQVWISQTRRRGPPCSVKEGEPSWRQGTRPDWPELKRSQRQSTAGRATDLSVDKAIPFGALLPCGEASKQHQQQQPNATGNWHDDADAPKEGLETN	soluble
MYSDSRKRSSDDLIDNSDESKKPKESRNLYCTLAAYGCRKGERADMQDTHIMLPKFDLGTEKSFLSRASFFAIFDGHAGPRAAEHCQSQMGKTVKEKLAKFSDFPTLTKSLKQTFTESYKAVDDGFLAIAKQNKPIWKDGTTATTMIILNNVIYVANIGDSRAVVARKKEDGSFAPVCLTVDHDPMSHDERMRIQKAGAVVKDGRINGVIEVSRSIGDLPFKSLGIISTPDLKKLTLTKNDL	not soluble
MASPAAGDVLIVGSGLVGRSWAMLFASGGFRVKLYDIEPRQITGALENIRKEMKSLQQSGSLKGSLSAEEQLSLISSCTNLAEAVEGVVHIQECVPENLDLKRKIFAQLDSIVDDRVVLSSSSSCLLPSKLFTGLAHVKQCIVAHPVNPPYYIPLVELVPHPETSPATVDRTHALMRKIGQSPVRVLKEIDGFVLNRLQYAIISEAWRLVEEGIVSPSDLDLVMSDGLGMRYAFIGPLETMHLNAEGMLSYSDRYSEGMKRVLKSFGSIPEFSGATVEKVNQAMCKKGPADPEHLAARREWRDECLKRELAKLKRQMQPQ	soluble
MGSDKIHHHHHHMSWSSAIFTGAVVHQRHRPKKHSLRYQVFCLLVDLDELPAIDKSLWLLGYNRRAILRIDDRDHGLGIPGGLKAWVANHVERAGLNTEGMKVSMLCYPRMFGYVFNPLTLYYCYGPSGTLLALLYEVENTFHERHTYVIPASVEEDGAIRHACAKQMYVSPFMPMECLYRFKIVPPGETVTVAINEADEQGPLLYASFCGKRRTLDDRALAKVLVRYPLMTLKVMGAIHWEALKLWVKGVPLHRHRKAQNPIASSIIPPEAANARSPS	not soluble
RYRAHCDAIALCAPMFGIIIRLPDWMVRHILDWAEGHQRIREEYAIGTGRWRALPFAVNVLTHSRQRYRRNLRFYADEPRLQVGGPTWHWVREGMLAGDEVLANVEKDTAPTLLLQAEEERVVDNLMHDRYCELRAAAGHPCEGGKPLVIEGAYHEILFEKDAMRSVALNAIVEFFNRHT	not soluble
MSLNIAKIVREAREQSRLTTLDFATGIFDEFIQLHGDRSFRDDGAVVGGIGWLGDQAVTVVGIQKGKSLQDNLKRNFGQPHPEGYRKALRLMKQAEKFGRPVVTFINTAGAYPGVGAEERGQGEAIARNLMEMSDLKVPIIAIIIGEGGSGGALALAVADRVWMLENSIYAILSPEGFASILWKDGTRAMEAAELMKITSHELLEMDVVDKVISEVGLSSKELIKSVKKELQTELARLSQKPLEELLEERYQRFRKYEGHHHHHH	soluble
MTVTYIGHSGFLLETEDAYFLFDYFEGTIPELKNNKSIIVFSSHRHHDHFNPEIFELIKIYPDIRYVLSYDIPLKRHLKKYENQGIDLAKNILITKKNIETMLKLPNGKDLKISTFRSTDEGVAFLLEYDNKVYYHAGDLNCWYWKEEPKSYRNNMIQLYIREIQKMDNLKIDVAFVPLDPRLEETAYEGLEIFMEHTNPQIVFPMHCWGKYDIISSFLNKHPEYKEKIRMINNEGQIFNV	not soluble
MGSDKIHHHHHHMKLRELLSIGDLKKGKILTKEIGLDNEVDSAMVLEAIDIENWSRKNQLILTSFYALHDLPEKELENFFVKMRRIGISGLILKTDRFIKMIPEWFIELCFNYEIPLIKITQDISYEKILFTIYEPLLNYQSHVLRTYYDVRQRFTKLERHYPTVETIMQEFYDIIKLPFALKMLDKHLEISDGDLPHDAIVLSREKLKNSEFTKNDYSLLTLYSHANPKKQLALEVSIFNSYSTNCLLLVYLQDEKVKETDLVIIENAIDVLQEKFNTENLLKKERYTRLNNLADAILQNTPQNPDELNSLLREVQMQELDSYQAIAFSTKDTNTQLMKERIIALLRTLRVKSIFFDQLNYSAVLFNFNESDGKITKLQLSRLLAELLEENDTLTVAVSSLKSREGIKELLIECLDILRFNETFYNGPIVTLADIGVFKNFIREDQLENLDELIPRALYQLAENNYDLFETLYSFFQNNRNYKQTSEAMFLHSKTIRYRLNKVEQLLDIDLANPLQLLNYEIATYIIKMRRRALEKQSNTR	not soluble
MVVVTGREPDSRRQDGAMSSSDAEDDFLEPATPTATQAGHALPLLPQEFPEVVPLNIGGAHFTTRLSTLRCYEDTMLAAMFSGRHYIPTDSEGRYFIDRDGTHFGDVLNFLRSGDLPPRERVRAVYKEAQYYAIGPLLEQLENMQPLKGEKVRQAFLGLMPYYKDHLERIVEIARLRAVQRKARFAKLKVCVFKEEMPITPYECPLLNSLRFERSESDGQLFEHHCEVDVSFGPWEAVADVYDLLHCLVTDLSAQGLTVDHQCIGVCDKHLVNHYYCKRPIYEFKITW	soluble
MGEREGRVDSLLDTLYNLSEEKEAFFITQKMKKLFSVKLSKSKVILVAACLLLAGSGTAYAAHELTKQSVSVSINGKKKHIRTHANTVGDLLETLDIKTRDEDKITPAKQTKITADMDVVYEAAKPVKLTINGEEKTLWSTAKTVGALLDEQDVDVKEQDQIDPAIDTDISKDMKINIEPAFQVTVNDAGKQKKIWTTSTTVADFLKQQKMNIKDEDKIKPALDAKLTKGKADITITRIEKVTDVVEEKIAFDVKKQEDASLEKGKEKVVQKGKEGKLKKHFEVVKENGKEVSRELVKEETAEQSKDKVIAVGTKQSSPKFETVSASGDSKTVVSRSNESTGKVMTVSSTAYTASCSGCSGHTATGVNLKNNPNAKVIAVDPNVIPLGSKVHVEGYGYAIAADTGSAIKGNKIDVFFPEKSSAYRWGNKTVKIKILN	soluble
MGSDKIHHHHHHMPHKASVFIVEFKFELESCPLGVVIPLEESKNKLASVKPLVDLTRPDMERVNQLILSRAGSDVQMIPEVANHLISSGGKRLRPMLTLASASMFGYEGDNHIKLATSVEFMHTATLLHDDVVDESDLRRGKSTARTIWGNQASVLVGDFLLGQAFRMMVDVGSLDALDVLSTAASVIAEGEVLQLSVAKNMETTEDDYLQVIRAKTAALFAAAAEVGPIVAKTDKASRSALKSYGMNLGLAFQLVDDVLDYGGKSADLGKNTGDDFREGKITLPVILSYRRGTQDERAFWRNAIEKGESSDENLEKALGLITKYNGLGDTIGRATHYGTIARDALAPLPQSPWKNALLEVIDFCIERLN	not soluble
MGSDKIHHHHHHMKGLDYCRQKAEESRSSFLSGFRFLTQEKQDAVTVLYAFCRELDDVVDECSNPDVAQATLNWWRGDLDNAFGGAMPEHPVNQALRQVKETFKLPKYELEALIDGMQMDLVQARYGSFEELKLYCRRVAGVVGCLIARILGFSDGKTLEYADKMGLALQLTNIIRDVGEDARRGRIYLPMEEMQRFDVPASVILQCSPTGNFAELMAFQIKRARETYREAVSLLPDADKKAQKVGLVMAAVYYALLNEIDRDGAQNVLKYKIALPSPRKKRIALKTWLFGFKPRPGTPERA	not soluble
MSLTPLMVNGILGESVTLPLEFPAGEKVNFITWLFNETSLAFIVPHETKSPEIHVTNPKQGKRLNFTQSYSLQLSNLKMEDTGSYRAQISTKTSAKLSSYTLRILRQLRNIQVTNHSQLFQNMTCELHLTCSVEDADDNVSFRWEALGNTLSSQPNLTVSWDPRISSEQDYTCIAENAVSNLSFSVSAQKLCE	soluble
MGSDKIHHHHHHMKIGILTFHDAHNYGAMLQCYALQQFLFKKGYNVEVIDYRPAFYQKQYHRHSLCPWIGKNPVRTMKSIYYNYYLFNKRCAAFSDFHNRHLYMSIPATRTNIPQSYDAYIVGSDQIWNPQLTNGFHDVYFCDFCFPKGKSRFIAYAPSMEISRLSTQEAEYLTRVLNCFDALSVRESSLIPILQPLVSQPIQQVLDPTLLLDATAWNPLIGKCPKNRPYVVLYQVRENPAVRMKAFEIAQSIGGIVVELTARIDCHYSTKYQTASPADFVTYIRYATYVVTTSFHGTAFSLIFNRPFYTFSLGDNFDSRSASLLESVNLTERLVCPDEQFEISLIDFKQANKRLKHLRKQSCDFLRQSLHERQEQ	not soluble
RTLGEVWKERLNQMTKEEFTRYRKEAIIEVDRSAAKHARKEGNVTGGHPVSRGTAKLRWLVERRFLEPVGKVIDLGCGRGGWCYYMATQKRVQEVRGYTKGGPGHEEPQLVQSYGWNIVTMKSGVDVFYRPSECCDTLLCDIGESSSSAEVEEHRTIRVLEMVEDWLHRGPREFCVKVLCPYMPKVIEKMELLQRRYGGGLVRNPLSRNSTHEMYWVSRASGNVVHSVNMTSQVLLGRMEKRTWKGPQYEEDVNLGSGTRAV	soluble
MSLELSDCSVPLTKEDIKDFEMELNIKIPAAMKNFYLKFNGGMPSPYCFQPQDEDLDWVEINAFFPIKERTNAFETIEVIAKDIWSKNLMPCNLLPFAMDSGGNYYTLNLKNKKIYYYLTDEWDENASKEYNFETNTRYIAQSFNYFINHFIEEEEEGHHHHHH	soluble
